The assay has as its target R203M mutant of full-length SARS-CoV-2 nucleocapsid (R203M-FLN) (SARS-CoV-2). As to the kind of experiment: AUC.

“R203M mutant of full-length SARS-CoV-2 nucleocapsid (R203M-FLN) (natural protein)” gave a stoichiometry N of 2.

Usually stoichiometry N stands for a count of units in the complex or per binding partner.

The record behind these values is doi:10.1101/2023.05.26.542392.
